Experimental data as given in patent EP4631972A1, “SITE-SPECIFIC COUPLED PEGYLATED INTERLEUKIN-2 MUTANT WITH RECEPTOR AFFINITY PREFERENCE AND USE THEREOF” (priority 2022, dated 2024).

Key:
Treg cells = experiment: Pharmacodynamic (PD) study in mice, peripheral Treg cells; type: in vivo, Balb/c mice; settings: 1 mg/kg s.c. single administration
Method: In this example, the pharmacodynamics (PD) of each IL-2 mutant obtained in Example 6 was studied in mice after a single administration to mice. SPF grade Balb/c mice were purchased and randomly divided into groups according to body weight, with 3 mice in each group. Drug administration started on the day of grouping. The dosing and grouping information is shown in Table 9, where G1-G5 were administered once, G6 and G7 were administered once a day, for a total of three doses. 30 µl of blood was taken from each group of mice, for PEGylated IL2 mutants and the negative control, blood was collected on day 0 (pre-administration), day 2, 3, 4, 5, 6 and 7 (only for G3, G4 and G5), and for IL2 and IL2-N88R, blood was collected on day 0 (pre-administration), day 1, 2 and 3. The number of each cell subpopulation was measured by flow cytometry. Antibodies against the staining marker used in flow cytometry are shown in Table 10, and the gating settings are shown in Table 11. Table 9 Dosing and grouping table for single-dose PD study in mice

[1] = Pharmacokinetic study in cynomolgus monkeys; settings: cynomolgus monkey
Method: Blood was collected before and after administration (4h, 8h, 24h, 48h, 72h, 120h, 168h, 240h, 336h) in the first cycle and after administration (8h, 24h, 48h, 72h, 120h, 168h, 240h) in the second cycle to detect plasma drug concentration.

[2] = Effects on body weight and physiological characteristics of mice; settings: 1 mg/kg s.c. once every three days, three times
Method: SPF grade Balb/c mice were purchased, with 3 mice in each group. Administration was started on the day of grouping. The test substance or PBS (negative control group) was administered subcutaneously at a dose of 1 mg/kg, once every three days, for a total of three times. The mice were weighed before each administration and three days after the third administration .

[3] = Pharmacokinetic study in mice, single administration, plasma concentration by ELISA; settings: 1 mg/kg s.c. single administration
Method: Balb/c mice were purchased, with 4 mice in each group. Each IL-2 mutant to be tested was administered subcutaneously once at a dose of 1 mg/kg. Blood was collected from the orbit at different time points after administration, and the plasma was separated and the plasma drug concentration was detected by ELISA. The main pharmacokinetic parameters were calculated, and C-T curve was plotted.

[4] = female, first-cycle dosing 50 µg/kg s.c.
[5] = female, second-cycle dosing 400 µg/kg s.c.
[6] = male, first-cycle dosing 50 µg/kg s.c.
[7] = male, second-cycle dosing 400 µg/kg s.c.

B1: 80K-1PEG-IL2-N88R-N77C: IL-2 mutant N88R, N77C, conjugation site 77, PEG molecular weight 80kD (conjugate)
chain: APTSSSTKKTQLQLEHLLLDLQMILNGINNYKNPKLTRMLTFKFYMPKKATELKHLQCLEEELKPLEEVLNLAQSKC(PEG 80 kDa)FHLRPRDLISRINVIVLELKGSETTFMCEYADETATIVEFLNRWITFSQSIISTLT
Treg cells
  activation peak of Treg proportion, time: 6 days
  increase in Treg proportion at peak: about 15 fold
[1]; [4]
  AUC inf: 186.0556 µg·h/mL
  AUClast: 147.9248 µg·h/mL
  CL: 0.27
  Cmax: 0.9025692 µg/mL
  MRT: 122.9092 h
  Tmax: 8 h
[1]; [5]
  AUC inf: 2286.053 µg·h/mL
  AUClast: 1481.823 µg·h/mL
  CL: 0.17
  Cmax: 8.785158 µg/mL
  MRT: 103.1 h
  Tmax: 8 h
[1]; [6]
  AUC inf: 278.1948 µg·h/mL
  AUClast: 184.7575 µg·h/mL
  CL: 0.18
  Cmax: 0.8244732 µg/mL
  MRT: 142.9087 h
  Tmax: 48 h
[1]; [7]
  AUC inf: 2635.62 µg·h/mL
  AUClast: 1885.448 µg·h/mL
  CL: 0.15
  Cmax: 11.43293 µg/mL
  MRT: 102.1 h
  Tmax: 48 h
[2]
  toxic side effects on mice: less toxic side effects
  visual observation of the mice: in good condition
[2]; three days after the third dose
  body weight compared with negative control: not significantly different from that of the negative control
[3]
  AUC inf: 463.63062 ± 37.7282 µg·h/mL
  AUClast: 437.8594 ± 41.0906 µg·h/mL
  CL: 2.17±0.18
  Cmax: 8.41872 ± 0.4914 µg/mL
  MRT: 40.08 ± 2.1 h
  Tmax: 24 h
  mean half-life: 25.23 h
  mean residence time (MRT): 40.08 h
